Source: patent US12458681B2, “Compositions and method for treating acute radiation syndrome” (Prince Biotech, LLC, priority 2014, dated 2025)

Columns and labels:
[1] = tested on: NOD mice; details: adoptive transfer and spontaneous disease, long term; cited from earlier work
[2] = target: Insulin-degrading enzyme (IDE) (Homo sapiens, UniProt P14735); assay: Differential Shift Assay of PIF mutants; format: binding
Description: Thus 2 putative mutants were conceived, mutant-1: P6→E6, and mutant-3:[…]; c. Table represent the mutants that were considered, of them 2 were synthesized based on their putative availability as options for ligand-receptor disruptors.

GRVDPSNKSMPKDIA [PTFscr]
diabetes development [1]: no effect

MVRGKPGSANKPSDD [mut3]
binding to IDE [2]: bind

MVRIKEGSANKPSDD [mut1]
binding to IDE [2]: bind
